According to article PMC7181406:
Where “and” joins values, the source holds several entries; their conditions need not be identical. Equal values may be shown once. Read-outs that look alike come from different tables or passages of the source. Values belong to the substance of their own block, whether it stands above or below them.

Assays:
Test in all cases: TIRF microscopy
[1] = molecular target: taxol-stabilized microtubules assembled from porcine brain tubulin (porcine) (UniProt P02550)
[2] = molecular target: taxol-stabilized microtubules assembled from porcine brain tubulin (porcine) (UniProt P02550); remark: listed apart in the source
[3] = molecular target: taxol-stabilized microtubules assembled from porcine brain tubulin (porcine) (UniProt P02550); remark: listed apart in the source
[4] = molecular target: taxol-stabilized microtubules assembled from porcine brain tubulin (porcine) (UniProt P02550); remark: listed apart in the source
[5] = molecular target: taxol-stabilized microtubules assembled from porcine brain tubulin (porcine) (UniProt P02550); remark: listed apart in the source
[6] = molecular target: taxol-stabilized microtubules assembled from porcine brain tubulin (porcine) (UniProt P02550); remark: listed apart in the source
[7] = molecular target: taxol-stabilized microtubules assembled from porcine brain tubulin (porcine) (UniProt P02550); remark: listed apart in the source
[8] = molecular target: taxol-stabilized microtubules assembled from porcine brain tubulin (porcine) (UniProt P02550); remark: listed apart in the source
[9] = molecular target: taxol-stabilized microtubules assembled from porcine brain tubulin (porcine) (UniProt P02550); remark: listed apart in the source
[10] = molecular target: taxol-stabilized microtubules assembled from porcine brain tubulin (porcine) (UniProt P02550); remark: listed apart in the source
[11] = molecular target: taxol-stabilized microtubules assembled from porcine brain tubulin (porcine) (UniProt P02550); remark: listed apart in the source
[12] = molecular target: taxol-stabilized microtubules assembled from porcine brain tubulin (porcine) (UniProt P02550); remark: listed apart in the source
[13] = molecular target: taxol-stabilized microtubules assembled from porcine brain tubulin (porcine) (UniProt P02550); remark: listed apart in the source

landing rate (motors μm^−1min^−1nM^−1) [1]: 0.03
landing rate (motors μm^−1min^−1nM^−1) [2]: 2.72
landing rate (motors μm^−1min^−1nM^−1) [3]: 0.03
landing rate (motors μm^−1min^−1nM^−1) [4]: 0.05
landing rate (motors μm^−1min^−1nM^−1) [5]: 0.01 and 0.005
landing rate (motors μm^−1min^−1nM^−1) [6]: 0.07
landing rate (motors μm^−1min^−1nM^−1) [7]: 0.58
landing rate (motors μm^−1min^−1nM^−1) [8]: 0.02
landing rate (motors μm^−1min^−1nM^−1) [9]: 0.06
landing rate (motors μm^−1min^−1nM^−1) [10]: 0.11
Substance: KIF5B_(1-560)-mScarlet (from UniProt P33176 1-560) (domain or fragment)

landing rate (motors μm^−1min^−1nM^−1) [11]: 0.83
landing rate (motors μm^−1min^−1nM^−1) [12]: 6.04
landing rate (motors μm^−1min^−1nM^−1) [10]: 5.44
Substance: KIF5B_(K-insert)-mScarlet (from UniProt P33176 1-560) (domain or fragment)

fluorescence intensity on microtubules [13]: 13700 A.U.
fluorescence intensity on microtubules [10]: 13200 A.U.
Substance: TMR-GST-dynein motor domain (SNAPf-GST-hDyn) (domain or fragment)

fluorescence intensity on microtubules [10]: 44200 A.U.
Substance: p150-mScarlet (from UniProt Q14203-1 1-1278) (natural protein)
